This assay deals with Human properdin (factor P) (human) (UniProt P27918). Briefly: SPR; FP immobilised by amine coupling to 79.55 RU; FXI or FXIa injected by OneStep gradient, maximum 50 nM, 30 uL/min, dissociation 300 s; Pall/ForteBio Pioneer; run in triplicate. In general terms: SPR reads the build-up and loss of mass on a sensor chip optically.

From publication PMC9130567 come the findings set out here.

One may read the Kd as the free concentration of one partner at which half of the binding sites on the other are occupied at equilibrium, for simple one-to-one binding. Higher therefore signals lower affinity.

UniProt P27918, sequence (P27918 28-469): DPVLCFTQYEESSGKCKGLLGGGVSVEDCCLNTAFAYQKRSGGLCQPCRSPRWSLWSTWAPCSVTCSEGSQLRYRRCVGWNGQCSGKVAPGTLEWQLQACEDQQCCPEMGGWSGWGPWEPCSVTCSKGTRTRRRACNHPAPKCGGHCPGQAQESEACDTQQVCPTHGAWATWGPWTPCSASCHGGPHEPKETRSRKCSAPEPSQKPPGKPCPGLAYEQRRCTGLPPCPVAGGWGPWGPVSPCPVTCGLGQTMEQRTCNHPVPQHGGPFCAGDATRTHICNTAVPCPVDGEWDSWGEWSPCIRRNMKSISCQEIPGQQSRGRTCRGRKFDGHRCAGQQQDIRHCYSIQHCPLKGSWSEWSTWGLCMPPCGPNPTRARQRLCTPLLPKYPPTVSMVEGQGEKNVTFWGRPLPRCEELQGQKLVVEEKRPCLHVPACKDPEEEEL

“Human activated coagulation factor XI (preactivated by FXIIa) (enzyme)” registered a Kd of 0.35 nM.
In turn, “Human coagulation factor XI zymogen (natural protein)” gave a Kd of 16.1 nM.
